Measured values from patent US20240117018A1.

Columns and labels:
Test in all cases: cell-based or functional assay
[1] = molecular target: MuLV envelope (negative control pseudovirus)
[2] = molecular target: HIV-1 Env pseudovirus C2101.c01 (HIV-1)
[3] = molecular target: HIV-1 Env pseudovirus BJOX010000.06.2 (HIV-1)
[4] = molecular target: HIV-1 Env pseudovirus 6540.v4.c1 (HIV-1)
[5] = molecular target: HIV-1 Env pseudovirus 6041.v3.c23 (HIV-1)
[6] = molecular target: HIV-1 Env pseudovirus T278-50 (HIV-1)
[7] = molecular target: HIV-1 Env pseudovirus 620345.c01 (HIV-1)
[8] = molecular target: HIV-1 Env pseudovirus A07412M1.vrc12 (HIV-1)
[9] = molecular target: HIV-1 Env pseudovirus BJOX015000.11.5 (HIV-1)
[10] = molecular target: HIV-1 Env pseudovirus CNE5 (HIV-1)
[11] = molecular target: HIV-1 Env pseudovirus BJOX009000.02.4 (HIV-1)
[12] = molecular target: HIV-1 Env pseudovirus X2088_c9 (HIV-1)

Substance | neutralization IC50 [1] [µg/mL] | neutralization IC80 [1] [µg/mL] | neutralization MPI [1] | IC50 (Titer in TZM.bl cells) [2] [µg/mL] | IC80 (Titer in TZM.bl cells) [2] [µg/mL] | IC50 (Titer in TZM.bl cells) [3] [µg/mL] | IC80 (Titer in TZM.bl cells) [3] [µg/mL] | IC50 (Titer in TZM.bl cells) [4] [µg/mL] | IC80 (Titer in TZM.bl cells) [4] [µg/mL] | IC50 (Titer in TZM.bl cells) [5] [µg/mL] | IC80 (Titer in TZM.bl cells) [5] [µg/mL] | IC50 (Titer in TZM.bl cells) [6] [µg/mL] | IC80 (Titer in TZM.bl cells) [6] [µg/mL] | IC50 (Titer in TZM.bl cells) [7] [µg/mL] | IC80 (Titer in TZM.bl cells) [7] [µg/mL] | IC50 (Titer in TZM.bl cells) [8] [µg/mL] | IC80 (Titer in TZM.bl cells) [8] [µg/mL] | IC50 (Titer in TZM.bl cells) [9] [µg/mL] | IC80 (Titer in TZM.bl cells) [9] [µg/mL] | IC50 (Titer in TZM.bl cells) [10] [µg/mL] | further results
N49P19 (antibody) | > 50 | > 50 | 0 |  |  |  |  |  |  |  |  |  |  |  |  |  |  |  |  |  | 
N49P9 (antibody) | > 50 | > 50 | 13 |  |  |  |  |  |  |  |  |  |  |  |  |  |  |  |  |  | 
3BNC117 (antibody) |  |  |  | 0.05 | 0.31 | 1.58 | 10.4 | > 50 | > 50 | 0.01 | 0.07 | > 15 | > 15 | > 15 | > 15 | 0.02 | 0.1 | 0.05 | 0.32 | 0.28 | IC80 (Titer in TZM.bl cells) [10]: 1.28 µg/mL; IC50 (Titer in TZM.bl cells) [11]: 0.4 µg/mL; IC80 (Titer in TZM.bl cells) [11]: 1.79 µg/mL; IC50 (Titer in TZM.bl cells) [12]: > 50 µg/mL; IC80 (Titer in TZM.bl cells) [12]: > 50 µg/mL
8ANC195 (antibody) |  |  |  | 0.48 | 3.54 | 0.85 | 5.84 | > 50 | > 50 | > 50 | > 50 | > 50 | > 50 | > 50 | > 50 | 2.25 | 7.49 | 0.97 | 4.3 | 2.12 | IC80 (Titer in TZM.bl cells) [10]: 9.67 µg/mL; IC50 (Titer in TZM.bl cells) [11]: 0.64 µg/mL; IC80 (Titer in TZM.bl cells) [11]: 3.09 µg/mL; IC50 (Titer in TZM.bl cells) [12]: > 50 µg/mL; IC80 (Titer in TZM.bl cells) [12]: > 50 µg/mL
